Data as given in patent publication US20240092867A1 (UNIVERSITY OF CHICAGO, published 2024).

B2: placental growth factor (PlGF)-1 (ligand, human, UniProt P49763-2 19-149, looked up)
chain: LPAVPPQQWALSAGNGSSEVEVVPFQEVWGRSYCRALERLVDVVSEYPSEVEHMFSPSCVSLLRCTGCCGDENLHCVPVETANVTMQLLKIRSGDRPSYVELTFSQHVRCECRPLREKMKPERCGDAVPRR
notes: mature; Purchased in mature form

How the values were obtained:
[1] = molecular target: T1, vascular endothelial growth factor (VEGF)-A121 (human, UniProt P15692-9 27-147); experiment: ELISA, peptide coated
T1 construct: mature; Purchased in mature form, not glycosylated
T1 sequence (looked up): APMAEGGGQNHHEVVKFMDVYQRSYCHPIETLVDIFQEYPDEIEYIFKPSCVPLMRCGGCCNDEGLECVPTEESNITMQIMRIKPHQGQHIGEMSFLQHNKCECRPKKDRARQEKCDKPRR
Method: (§1) (A) The location of laminin-derived peptides in the LG domain of laminin α3, α4, and α5 chains. (B-F) Affinity of heparin and GFs against chemically synthesized peptides derived from the LG domain of laminin α3, α4, and α5 chains. ELISA plates were coated with 10 μg/mL laminin peptide and further incubated with (B) biotinylated heparin, (C) VEGF-A165 and VEGF-A121, (D) PlGF-2 and PlGF-1, (E) PDGF-BB, or (F) FGF-2. Concentrations were 1 μg/mL for GFs and 10 μg/mL for heparin. Bound heparin was detected with streptavidin, and bound GFs with a specific antibody for each GF (n=4, mean±SEM). Statistical analyses were done using the Mann-Whitney U test by comparing the signals obtained from the laminin peptide- and the BSA-coated wells. *p<0.05, **p<0.01.
(§2) ELISA tests were performed as described above. […] 1 μg/mL of BSA served as non-binding protein control. After blocking with 2% BSA PBS-0.05% Tween 20 (PBS-T) solution, 1 μg/mL of the recombinant human proteins (VEGF-A121, VEGF-A165, PlGF-1, PlGF-2, PDGF-BB or FGF-2) or 10 μg/mL of biotinylated heparin (Sigma-Aldrich) were added. Bound GF was detected with biotinylated antibodies for human VEGF, PlGF, PDGF-BB, or FGF-2 (R&D Systems). The antibodies were detected by streptavidin-HRP (R&D Systems).

[2] = molecular target: B2; experiment: ELISA, peptide coated
Method: as §1, §2

[3] = molecular target: T2, platelet-derived growth factor (PDGF)-BB (human, UniProt P01127 82-190); experiment: ELISA; peptide coated (10 µg/mL, legend paragraph 53), GF in solution, BSA-coated wells as control [panel E]
T2 construct: mature; Purchased in mature form
T2 sequence (P01127 82-190): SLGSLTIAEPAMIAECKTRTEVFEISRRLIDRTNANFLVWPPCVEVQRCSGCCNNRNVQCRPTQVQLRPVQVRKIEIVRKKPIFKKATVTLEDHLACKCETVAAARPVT
Method: as §1, §2

[4] = molecular target: T3, placental growth factor (PlGF)-2 (human, UniProt P49763-3 19-170); experiment: ELISA; peptide coated (10 µg/mL, legend paragraph 53), GF in solution, BSA-coated wells as control [panel D]
T3 construct: mature; Purchased in mature form
T3 sequence (looked up): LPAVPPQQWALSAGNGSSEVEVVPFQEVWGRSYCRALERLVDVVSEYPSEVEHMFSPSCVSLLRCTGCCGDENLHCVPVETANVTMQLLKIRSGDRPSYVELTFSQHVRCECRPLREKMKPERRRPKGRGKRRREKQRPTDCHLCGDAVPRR
Method: as §1, §2

[5] = molecular target: T4, vascular endothelial growth factor (VEGF)-A165 (human, UniProt P15692-4 27-191); experiment: ELISA, peptide coated, GF 1 µg/mL
T4 construct: mature; Purchased in mature form, not glycosylated
Method: as §1, §2

recombinant human BMP-2 = molecular target: T5, recombinant human BMP-2 (human, UniProt P12643 283-396); experiment: ELISA, rhBMP-2 coated 50 nM, binder 50 nM
T5 construct: also called rhBMP-2
T5 sequence (P12643 283-396 limits assumed): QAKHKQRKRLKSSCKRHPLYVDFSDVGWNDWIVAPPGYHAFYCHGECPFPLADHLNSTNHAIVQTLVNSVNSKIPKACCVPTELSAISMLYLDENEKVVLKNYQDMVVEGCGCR
Method: ELISA plates (NUNC MaxiSorp) were coated with 50 nM of recombinant human BMP-2 (CHO produced, R&D Systems, Minneapolis MN, USA) overnight at room temperature.

[6] = molecular target: B2; experiment: ELISA; growth factors coated at 100 nM, FabCol variants at 100 nM in solution, HRP-anti-human Fab [panel F]
bovine type I collagen = molecular target: T6, bovine type I collagen (bovine, UniProt P02453 178-1191; P02465 89-1102); experiment: ELISA, collagen I coated, 0.01-30 nM binder
T6 construct: PureCol, Advanced BioMatrix; coated on the plate; also called collagen I; PureCol
Method: ELISA plates (NUNC MaxiSorp, ThermoFisher Scientific) were coated overnight with 10 μg/mL of bovine type I collagen (PureCol, Advanced BioMatrix, San Diego CA, USA) at room temperature. The plate was further blocked using 2% bovine serum albumine (BSA) for 2 h at room temperature. […] The plate was washed thrice in PBST, and an horseradish peroxidase-conjugated anti-human Fab antibody (Jackson ImmunoResearch,) was used to detect bound FabCol variants. […] Absorbance at 450 nm was read using […], and corrected using the absorbance at 570 nm. Curve fits and dissociation constant KD were computed using Prism (GraphPad Software Inc., USA).

[7] = molecular target: T2, platelet-derived growth factor (PDGF)-BB; experiment: ELISA; growth factors coated at 100 nM, FabCol variants at 100 nM in solution, HRP-anti-human Fab [panel F]
[8] = molecular target: T3, placental growth factor (PlGF)-2; experiment: as above
[9] = molecular target: T4, vascular endothelial growth factor …; experiment: as above
[10] = molecular target: T7, recombinant laminin α3 2928-3150 protein (linker domain and LG4 domain) (human, UniProt Q16787 2928-3150); experiment: ELISA, LG domain protein coated
T7 construct: range 2928-3150; Made in HEK-293F cells; also called laminin alpha 3 LG domain recombinant protein
T7 sequence: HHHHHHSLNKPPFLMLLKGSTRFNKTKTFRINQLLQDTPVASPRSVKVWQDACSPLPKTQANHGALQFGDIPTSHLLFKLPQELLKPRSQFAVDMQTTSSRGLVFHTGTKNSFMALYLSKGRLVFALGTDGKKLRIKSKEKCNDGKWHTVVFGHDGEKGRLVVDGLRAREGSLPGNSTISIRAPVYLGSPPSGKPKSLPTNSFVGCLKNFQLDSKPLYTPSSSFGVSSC
Method: Affinity of GFs against recombinant laminin LG domains. ELISA plates were coated with 1 μg/mL (A) α3₂₉₂₈₋₃₁₅₀, (B) α4₈₂₆₋₁₈₁₆, or (C) α5₃₀₂₆₋₃₄₈₂ and further incubated with 1 μg/mL of VEGF-A165, VEGF-A121, PlGF-2, PlGF-1, PDGF-BB, or FGF-2 solution. Bound GFs were detected using a specific antibody for each GF (n=4, mean±SEM). Statistical analyses were done using the Mann-Whitney U test by comparing the signals obtained from the laminin domain- and the BSA-coated wells. *p<0.05, **p<0.01. […] A SPR chip was functionalized with the laminin α3₂₉₂₈₋₃₁₅₀ recombinant protein (˜1000 RU), and each GF was flowed over the chip at indicated concentrations. Curves represent the specific responses (in RU) to laminin. Experimental curves were fitted with Langmuir binding kinetics.
as §2

[11] = molecular target: T8, recombinant human vWF A1 domain (human, UniProt P04275 1261-1468, limits assumed); experiment: ELISA; recombinant vWF A1 domain coated (10 µg/mL, legend paragraph 67), GF in solution, detected with anti-PlGF antibody [panel B]
T8 construct: domain: A1; also called vWF A1 recombinant protein; recombinant A1 domain
Method: FIGS. 18A-C. […] Bound GFs were detected using a specific antibody for each GF (n=4, mean±SD). Statistical analyses were done using ANOVA with Tukey's test or Student's t-test. *p<0.05, **p<0.01.
ELISA tests were performed as described above. […] After blocking with 2% BSA solution containing PBS-T, 1 μg/mL of the recombinant human proteins VEGF-A121, VEGF-A165, PlGF-1, PlGF-2, PDGF-BB, FGF-2, CXCL-12α and CXCL-12γ were added. 1 μg/mL of BSA served as non-binding protein control. Bound GF or chemokine was detected with biotinylated antibodies for human VEGF-A, PlGF, PDGF-BB, FGF-2, or CXCL-12 (R & D Systems). The antibodies were detected by streptavidin-HRP (R & D Systems). Color development and the absorbance measurement were done as described above.

laminin-421 = molecular target: T9, laminin-421 (human, UniProt Q16363 25-1823; P55268 33-1798; P11047 34-1609); experiment: ELISA, GF coated, laminin 10 nM
T9 construct: Full-length recombinant human laminin isoform (BioLamina); chains read from the isoform name
Method: (§3) ELISA tests were performed as previously reported. In brief, ELISA plates (med-binding, Greiner Bio-One) were coated with 50 nM GFs at 37° C. for more than 2 hrs. […] Bound laminin was detected with rabbit anti-human laminin γ1 chain antibody (1:1000 dilution, Assay biotech) or rabbit anti-human laminin α3 chain antibody (1:1000 dilution, Assay biotech). After incubation with biotinylated anti-rabbit antibody for 60 min at room temperature (RT), HRP conjugated streptavidin (Jackson ImmunoResearch) was added. After 60 min of incubation at RT, 50 μL TMB substrate (Sigma-Aldrich) was added. The reactions were stopped by adding 25 μL of 2 N H₂SO₄. Subsequently, the absorbance at 450 nm was measured with a reference of 570 nm.

laminin-211 = molecular target: T10, laminin-211 (human, UniProt P24043 23-3122; P07942 22-1786; P11047 34-1609); experiment: ELISA, GF coated, laminin 10 nM
T10 construct: Full-length recombinant human laminin isoform (BioLamina); chains read from the isoform name
Method: as §3

laminin-411 = molecular target: T11, laminin-411 (human, UniProt Q16363 25-1823; P07942 22-1786; P11047 34-1609); experiment: ELISA, GF coated, laminin 10 nM
T11 construct: Full-length recombinant human laminin isoform (BioLamina); chains read from the isoform name
Method: as §3

laminin-521 = molecular target: T12, laminin-521 (human, UniProt O15230 36-3695; P55268 33-1798; P11047 34-1609); experiment: ELISA, GF coated, laminin 10 nM
T12 construct: Full-length recombinant human laminin isoform (BioLamina); chains read from the isoform name
Method: as §3

laminin-111 = molecular target: T13, laminin-111 (human, UniProt P25391 18-3075; P07942 22-1786; P11047 34-1609); experiment: ELISA, GF coated, laminin 10 nM
T13 construct: Full-length recombinant human laminin isoform (BioLamina); Chain composition is read from the isoform name
Method: as §3

laminin-332 = molecular target: T14, laminin-332 (human, UniProt Q16787 28-1724; Q13751 18-1172; Q13753 22-1193, limits assumed); experiment: ELISA, GF coated, laminin 10 nM
T14 construct: Full-length recombinant human laminin isoform (BioLamina); chains read from the isoform name
T14 sequence (Q16787 other isoform, or with tags, fused parts or gaps limits assumed, chain 1 of 3): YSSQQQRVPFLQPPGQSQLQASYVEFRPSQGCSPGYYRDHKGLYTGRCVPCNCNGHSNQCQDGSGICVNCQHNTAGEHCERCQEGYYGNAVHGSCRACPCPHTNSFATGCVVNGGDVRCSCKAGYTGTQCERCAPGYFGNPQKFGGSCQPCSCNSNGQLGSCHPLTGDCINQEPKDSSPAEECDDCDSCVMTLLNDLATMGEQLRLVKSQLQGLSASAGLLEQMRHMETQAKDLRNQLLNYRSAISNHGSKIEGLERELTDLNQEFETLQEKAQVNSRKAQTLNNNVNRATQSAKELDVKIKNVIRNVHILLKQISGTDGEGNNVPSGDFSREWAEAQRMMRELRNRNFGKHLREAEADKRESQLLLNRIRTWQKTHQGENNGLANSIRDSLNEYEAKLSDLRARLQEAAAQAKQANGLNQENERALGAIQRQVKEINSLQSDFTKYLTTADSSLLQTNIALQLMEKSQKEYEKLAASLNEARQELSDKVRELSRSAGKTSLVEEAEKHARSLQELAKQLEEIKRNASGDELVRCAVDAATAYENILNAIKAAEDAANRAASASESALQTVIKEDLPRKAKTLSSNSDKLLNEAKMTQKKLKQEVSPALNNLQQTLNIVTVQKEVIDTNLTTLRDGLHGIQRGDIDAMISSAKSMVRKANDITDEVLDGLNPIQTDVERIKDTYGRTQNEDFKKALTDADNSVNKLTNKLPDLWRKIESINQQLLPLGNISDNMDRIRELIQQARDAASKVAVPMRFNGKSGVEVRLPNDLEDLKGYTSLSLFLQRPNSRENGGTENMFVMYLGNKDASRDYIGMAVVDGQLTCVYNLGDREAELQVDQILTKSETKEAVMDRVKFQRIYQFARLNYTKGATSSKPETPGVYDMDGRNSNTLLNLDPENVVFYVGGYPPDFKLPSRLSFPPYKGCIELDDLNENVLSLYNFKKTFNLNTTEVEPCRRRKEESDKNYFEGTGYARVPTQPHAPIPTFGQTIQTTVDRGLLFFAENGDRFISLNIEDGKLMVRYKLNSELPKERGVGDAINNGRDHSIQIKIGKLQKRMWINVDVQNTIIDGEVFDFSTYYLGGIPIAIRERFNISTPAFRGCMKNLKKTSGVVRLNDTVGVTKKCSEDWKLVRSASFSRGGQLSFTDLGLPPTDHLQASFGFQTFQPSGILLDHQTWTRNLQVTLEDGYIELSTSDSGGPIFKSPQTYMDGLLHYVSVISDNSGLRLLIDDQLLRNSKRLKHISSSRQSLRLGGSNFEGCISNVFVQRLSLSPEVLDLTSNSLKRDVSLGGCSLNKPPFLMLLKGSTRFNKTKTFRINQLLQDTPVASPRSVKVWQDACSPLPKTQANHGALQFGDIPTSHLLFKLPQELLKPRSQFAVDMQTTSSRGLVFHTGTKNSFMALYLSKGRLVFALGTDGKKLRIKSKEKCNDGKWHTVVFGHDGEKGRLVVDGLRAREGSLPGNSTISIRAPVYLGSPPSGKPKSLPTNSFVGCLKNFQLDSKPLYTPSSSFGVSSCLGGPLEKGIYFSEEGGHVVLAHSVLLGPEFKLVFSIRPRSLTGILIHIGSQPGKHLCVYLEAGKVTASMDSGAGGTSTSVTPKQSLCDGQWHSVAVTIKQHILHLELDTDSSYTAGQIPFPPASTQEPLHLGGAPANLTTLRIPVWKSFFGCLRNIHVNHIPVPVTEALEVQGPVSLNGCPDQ
T14 sequence (Q13751 18-1172 limits assumed, chain 2 of 3): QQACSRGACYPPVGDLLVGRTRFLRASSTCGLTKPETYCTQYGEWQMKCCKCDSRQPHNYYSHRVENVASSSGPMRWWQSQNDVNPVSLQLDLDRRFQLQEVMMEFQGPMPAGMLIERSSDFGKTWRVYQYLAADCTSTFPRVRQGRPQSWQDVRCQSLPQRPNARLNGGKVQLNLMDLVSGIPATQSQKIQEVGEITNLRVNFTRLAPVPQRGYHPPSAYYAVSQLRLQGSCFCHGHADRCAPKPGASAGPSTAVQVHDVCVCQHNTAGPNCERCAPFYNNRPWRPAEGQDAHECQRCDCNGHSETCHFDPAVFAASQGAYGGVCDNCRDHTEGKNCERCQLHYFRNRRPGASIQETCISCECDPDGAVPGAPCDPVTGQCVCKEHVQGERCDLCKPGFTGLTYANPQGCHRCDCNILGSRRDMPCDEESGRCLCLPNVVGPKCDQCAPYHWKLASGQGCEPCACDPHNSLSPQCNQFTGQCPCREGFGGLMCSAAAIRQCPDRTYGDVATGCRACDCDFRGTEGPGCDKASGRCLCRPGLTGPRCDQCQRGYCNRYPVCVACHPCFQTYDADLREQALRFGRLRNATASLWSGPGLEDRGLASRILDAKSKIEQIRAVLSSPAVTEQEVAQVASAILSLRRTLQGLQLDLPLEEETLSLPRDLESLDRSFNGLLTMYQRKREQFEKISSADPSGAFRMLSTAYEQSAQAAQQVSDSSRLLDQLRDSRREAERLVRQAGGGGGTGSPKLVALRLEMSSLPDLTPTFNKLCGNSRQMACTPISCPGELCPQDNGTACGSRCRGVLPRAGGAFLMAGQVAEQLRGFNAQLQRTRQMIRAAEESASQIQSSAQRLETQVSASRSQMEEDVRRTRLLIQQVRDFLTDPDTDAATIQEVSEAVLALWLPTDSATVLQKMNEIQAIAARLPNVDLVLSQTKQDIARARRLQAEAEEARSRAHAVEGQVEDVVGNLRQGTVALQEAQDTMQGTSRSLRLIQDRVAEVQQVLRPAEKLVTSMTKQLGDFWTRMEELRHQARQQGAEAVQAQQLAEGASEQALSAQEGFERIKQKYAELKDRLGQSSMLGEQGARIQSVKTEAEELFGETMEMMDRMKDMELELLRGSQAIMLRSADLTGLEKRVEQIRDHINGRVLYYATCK
T14 sequence (Q13753 22-1193 limits assumed, chain 3 of 3): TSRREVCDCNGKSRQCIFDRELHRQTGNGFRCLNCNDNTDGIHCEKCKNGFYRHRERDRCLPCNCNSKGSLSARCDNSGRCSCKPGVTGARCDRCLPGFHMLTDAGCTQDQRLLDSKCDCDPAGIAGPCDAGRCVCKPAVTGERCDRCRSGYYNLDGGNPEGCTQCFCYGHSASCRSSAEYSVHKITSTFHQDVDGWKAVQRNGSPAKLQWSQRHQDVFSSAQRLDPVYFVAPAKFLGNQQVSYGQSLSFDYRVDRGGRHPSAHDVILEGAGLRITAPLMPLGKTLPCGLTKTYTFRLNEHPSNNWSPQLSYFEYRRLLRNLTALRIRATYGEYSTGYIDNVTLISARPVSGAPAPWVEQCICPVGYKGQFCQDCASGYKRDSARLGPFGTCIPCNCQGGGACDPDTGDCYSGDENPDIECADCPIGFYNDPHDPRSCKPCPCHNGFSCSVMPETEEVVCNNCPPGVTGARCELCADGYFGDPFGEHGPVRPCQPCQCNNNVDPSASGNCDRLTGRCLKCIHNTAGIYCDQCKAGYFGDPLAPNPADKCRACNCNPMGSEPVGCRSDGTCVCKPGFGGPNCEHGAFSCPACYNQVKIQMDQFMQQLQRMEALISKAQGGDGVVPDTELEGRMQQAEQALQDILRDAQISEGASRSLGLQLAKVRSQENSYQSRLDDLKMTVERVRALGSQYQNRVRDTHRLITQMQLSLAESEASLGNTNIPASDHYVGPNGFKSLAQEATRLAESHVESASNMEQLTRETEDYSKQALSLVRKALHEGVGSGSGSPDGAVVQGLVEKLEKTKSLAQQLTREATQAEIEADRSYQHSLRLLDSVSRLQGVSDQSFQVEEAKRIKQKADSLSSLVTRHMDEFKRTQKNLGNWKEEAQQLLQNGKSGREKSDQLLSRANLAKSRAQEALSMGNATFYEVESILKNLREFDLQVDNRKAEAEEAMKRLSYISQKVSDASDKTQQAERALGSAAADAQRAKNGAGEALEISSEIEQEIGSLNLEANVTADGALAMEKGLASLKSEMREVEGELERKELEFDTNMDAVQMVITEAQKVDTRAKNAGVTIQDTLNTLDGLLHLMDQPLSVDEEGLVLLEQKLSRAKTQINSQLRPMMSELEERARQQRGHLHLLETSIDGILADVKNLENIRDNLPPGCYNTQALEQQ
Method: as §3

laminin-511 = molecular target: T15, laminin-511 (human, UniProt O15230 36-3695; P07942 22-1786; P11047 34-1609); experiment: ELISA, GF coated, laminin 10 nM
T15 construct: Full-length recombinant human laminin isoform (BioLamina); chains read from the isoform name
Method: as §3

human plasma-derived vWF = molecular target: T16, human plasma-derived vWF (human, UniProt P04275 764-2813); experiment: ELISA, GF coated 50 nM, vWF 1 µg/mL
T16 construct: mature; also called plasma-derived purified vWF; von Willebrand factor
Method: ELISA tests were performed as previously reported1. In brief, ELISA plates (med-binding, Greiner Bio-One) were coated with 50 nM GFs at 37° C. for 2 hrs. […] Then, HRP conjugated goat anti-rabbit antibody (Jackson ImmunoResearch) was added. After 60 min of incubation, 50 μL TMB substrate (Sigma-Aldrich) was added. The reaction was stopped by adding 25 μL of 2N H2SO4. Subsequently, the absorbance at 450 nm was measured and subtracted the absorbance at 570 nm.

KNSFMALYLSKGR (Chemically synthesized (Genscript)) [laminin α3 3031-3043 peptide (LG4)]
binding result [1]: no binding (tested: 1 µg/mL) | binding result [2]: no binding (tested: 1 µg/mL) | binding result [3]: no binding (tested: 1 µg/mL PDGF-BB (single concentration)) | binding result [4]: no binding (tested: 1 µg/mL PlGF-2 (single concentration)) | binding result [5]: binds

B1: FabCol-LamLG4 recombinant fusion protein (Fab)
light: EIVLTQSPGTLSLSPGERATLSCRASQSVSSSYLAWYQQKPGQAPRLLIYGASSRATGIPDRFSGSGSGTDFTLTISRLEPEDFAVYYCQQAIGFPQTFGQGTKVEIKRTVAAPSVFIFPPSDEQLKSGTASVVCLLNNFYPREAKVQWKVDNALQSGNSQESVTEQDSKDSTYSLSSTLTLSKADYEKHKVYACEVTHQGLSSPVTKSFNRGEC
heavy: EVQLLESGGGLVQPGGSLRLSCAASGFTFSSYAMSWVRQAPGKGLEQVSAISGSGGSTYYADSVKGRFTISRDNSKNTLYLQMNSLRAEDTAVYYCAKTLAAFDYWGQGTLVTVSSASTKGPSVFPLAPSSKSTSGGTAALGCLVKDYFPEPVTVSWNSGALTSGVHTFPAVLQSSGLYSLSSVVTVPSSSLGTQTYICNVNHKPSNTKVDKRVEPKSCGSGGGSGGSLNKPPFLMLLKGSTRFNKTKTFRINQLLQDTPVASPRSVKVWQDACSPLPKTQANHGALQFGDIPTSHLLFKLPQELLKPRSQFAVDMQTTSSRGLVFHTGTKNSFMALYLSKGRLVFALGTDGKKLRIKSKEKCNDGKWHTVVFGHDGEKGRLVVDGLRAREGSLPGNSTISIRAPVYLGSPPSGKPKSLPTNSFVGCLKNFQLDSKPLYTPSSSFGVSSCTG
binding result (recombinant human BMP-2): binds | binding result [6]: no binding (tested: 100 nM (single concentration)) | Kd (bovine type I collagen): ~2.3 nM | binding result [7]: binds | binding result [8]: binds | binding result [9]: binds

B2
binding result [10]: no binding (tested: 1 µg/mL) | binding result [11]: no binding (tested: 1 µg/mL PlGF-1 (single concentration)) | binding result (laminin-421): no binding (tested: A450 0.1) | binding result (laminin-211): no binding (tested: A450 0.1) | binding result (laminin-411): no binding (tested: A450 0.1) | binding result (laminin-521): no binding (tested: A450 0.1) | binding result (laminin-111): no binding (tested: A450 0.1) | binding result (laminin-332): no binding (tested: A450 0.1) | binding result (laminin-511): no binding (tested: A450 0.1) | binding result (human plasma-derived vWF): no binding
